According to patent US20240117074A1 (published 2024):

How the values were obtained:
[1] = target: T1, CEACAM8, recombinant soluble (CEACAM-8, R&D Systems #9639-CM-050) (UniProt P31997 35-320, limits assumed); test: ELISA, coated CEACAM family protein
T1 sequence (looked up): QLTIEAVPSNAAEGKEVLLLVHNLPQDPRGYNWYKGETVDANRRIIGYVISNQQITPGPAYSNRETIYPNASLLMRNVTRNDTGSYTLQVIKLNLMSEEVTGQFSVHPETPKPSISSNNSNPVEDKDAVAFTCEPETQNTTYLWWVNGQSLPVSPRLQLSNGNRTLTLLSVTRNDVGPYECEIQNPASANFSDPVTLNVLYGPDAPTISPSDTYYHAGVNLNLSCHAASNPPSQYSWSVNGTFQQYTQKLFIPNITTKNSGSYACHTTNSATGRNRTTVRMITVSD
Method: (§1) 96-well plates were coated with 0.5 μg/mL antigen, hCEACAM-1 (2244-CM-050, R&D Systems), hCEACAM-5 (4128-CM-050, R&D Systems), hCEACAM-6 (3934-CM-050, R&D Systems) or CEACAM-8 (9639-CM-050, R&D Systems) in PBS over night at 4° C. After washing in PBS/0.05% Tween 20 (PBST), the plates were blocked with PBST, 2% BSA for at least 30 minutes at room temperature before a second round of washing. RUBY bsAbs, diluted in PBST, 0.5% BSA, were then added and allowed to bind for at least 1 hour at room temperature. […] Finally, a final round of washing was performed and bound complexes detected using SuperSignal Pico Luminescent as substrate and luminescence signals were measured using Fluostar Optima.

[2] = target: T2, human CEACAM1, recombinant soluble (hCEACAM-1, R&D Systems #2244-CM-050) (human, UniProt P13688 35-428); test: ELISA, coated CEACAM family protein
T2 sequence (looked up): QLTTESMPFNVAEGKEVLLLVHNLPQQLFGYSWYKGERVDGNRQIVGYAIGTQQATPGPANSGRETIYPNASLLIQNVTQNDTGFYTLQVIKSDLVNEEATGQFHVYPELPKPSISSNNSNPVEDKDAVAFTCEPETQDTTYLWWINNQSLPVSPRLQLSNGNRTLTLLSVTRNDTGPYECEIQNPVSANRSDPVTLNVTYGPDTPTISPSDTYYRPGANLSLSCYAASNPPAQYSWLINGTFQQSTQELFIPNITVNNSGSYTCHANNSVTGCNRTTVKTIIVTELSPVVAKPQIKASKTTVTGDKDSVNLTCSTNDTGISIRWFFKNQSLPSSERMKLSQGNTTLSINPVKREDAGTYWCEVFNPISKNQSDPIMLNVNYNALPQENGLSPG
Method: as §1

[3] = target: T3, human CEACAM6, recombinant soluble (hCEACAM-6, R&D Systems #3934-CM-050) (human, UniProt P40199 35-320); test: ELISA, coated CEACAM family protein
T3 sequence (looked up): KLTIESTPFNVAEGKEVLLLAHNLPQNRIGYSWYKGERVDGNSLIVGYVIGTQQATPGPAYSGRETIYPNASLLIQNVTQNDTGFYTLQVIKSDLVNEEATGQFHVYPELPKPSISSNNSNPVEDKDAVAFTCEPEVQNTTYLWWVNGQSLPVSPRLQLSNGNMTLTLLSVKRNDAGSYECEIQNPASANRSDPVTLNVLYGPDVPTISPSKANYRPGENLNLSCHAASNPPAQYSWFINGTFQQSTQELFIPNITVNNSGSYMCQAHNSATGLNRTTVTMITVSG
Method: as §1

[4] = target: T4, biotinylated human CD40-mouse Fc (Ancell #504-030) (human, UniProt P25942 21-193, biotinylated); test: dual target ELISA: CEACAM5 coated, biotinylated hCD40-muIg detection
T4 construct: Bought fusion protein; also called hCD40-muIg; CD40mFc-biotin; not shown: mouse Ig Fc of the bought fusion protein
Method: ELISA plates were coated with human EpCAM, bsAb was added followed by detection using goat anti human-kappa light chain-HRP.
as §1

T4 sequence (P25942 21-193): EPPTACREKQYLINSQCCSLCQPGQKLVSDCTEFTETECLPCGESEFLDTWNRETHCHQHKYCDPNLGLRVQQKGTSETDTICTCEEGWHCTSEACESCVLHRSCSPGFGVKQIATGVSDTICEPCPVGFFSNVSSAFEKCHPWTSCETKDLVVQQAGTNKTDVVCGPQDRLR

binding result [1]: no binding
binding result [2]: no binding
binding result [3]: no binding
binding result [4]: binds
B1: Multi48 (bispecific antibody)
heavy 1: not shown
light: DIQMTQSPSSLSASVGDRVTITCRASQSISSYLNWYQEKPGKAPKLLIYAASSLQSGVPSRFSGSGSGTDFTLTISSLQPEDFATYYCQQYGRNPPTFGQGTKLEIKRTVAAPSVFIFPPSDEQLKSGTASVVCYLNNFYPREAKVQWKVDNALQSGNSQESVTEQDSKDSTYSLWSTLTLSKADYEKHKVYACEVTHQGLSSPVTKSFNRGEC
heavy 2: EVQLLESGGGLVQPGGSLRLSCAASGFTFGDHAMSWVREAPGKGLEWVSAISGYGHSTGYADSVKGRFTISRDNSKNTLYLQMNSLRAEDTAVYYCARNHYRVGLDYWGQGTLVTVSSASTKGPSVFPLAPSSKSTSGGTAALGCLVKDYFPEPVTVSWNSGALTSGVHTFPAVLQSSGLYSLTSVVEVPSSSLGTQTYICNVNHKPSNTKVDKKVEPKSC
notes: copies: 2 + 2 + 2
